PMC6446880

Biological target: T1, IRF3 K359A (IRF3 (K359A)-his) (UniProt P70671 1-419, K359A)
T1 sequence: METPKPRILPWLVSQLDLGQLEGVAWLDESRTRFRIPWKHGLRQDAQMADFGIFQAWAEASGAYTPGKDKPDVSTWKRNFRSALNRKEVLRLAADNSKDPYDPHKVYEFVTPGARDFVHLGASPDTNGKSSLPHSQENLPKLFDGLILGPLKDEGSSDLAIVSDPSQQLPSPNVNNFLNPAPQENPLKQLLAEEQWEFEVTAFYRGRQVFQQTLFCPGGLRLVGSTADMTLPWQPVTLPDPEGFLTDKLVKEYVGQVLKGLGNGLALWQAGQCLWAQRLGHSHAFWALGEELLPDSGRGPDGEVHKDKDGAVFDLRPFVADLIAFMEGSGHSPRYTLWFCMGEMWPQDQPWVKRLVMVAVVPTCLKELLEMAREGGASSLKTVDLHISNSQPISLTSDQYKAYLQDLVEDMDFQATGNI
Experiment: EMSA

Binder | binding result
IFN-β (Ifnb) promoter probe (dsDNA) DNA 1: GAAAACTGAAAGGGAGAACTGAAAGT DNA 2: ACTTTCAGTTCTCCCTTTCAGTTTTC | binds
IFN-α (Ifna4) promoter probe (dsDNA) DNA 1: GAAAGTGAAAAGAGAATTGGAAAGC DNA 2: GCTTTCCAATTCTCTTTTCACTTTC | binds
